Five sequences from patent US10561706B2, “Isolated polypeptide and compositions comprising same” (B. G. NEGEV TECHNOLOGIES AND APPLICATIONS LTD., AT …, priority 2015, dated 2020) can be followed below.

The target in assay [1] is T1, SOD1^G93A (Homo sapiens, UniProt P00441, G94A).
T1 construct: 6His (N); made in house; host or cells: E. coli BL21
Kind of assay: ThT aggregation assay of SOD1^G93A with SOD1-derived peptides. It counts as biochemical. As to conditions: for ThT response / amyloid-like aggregation of SOD1^G93A on co-incubation with peptide: SOD1^G93A 50 μM, up to 64 h. Here is the method: Prior to the aggregation assay, all mixtures containing protein and/or peptide were filtered through a 0.22 μm Millex-GV (PVDF) syringe filter, 4 mm (Millipore, USA). SOD1^G93A (50 μM) or peptide (600 μM) were incubated in 200 μl of 20 mM […] buffer, pH 7.0, 0.1 M NaCl, 5 mM EDTA, 1 mM TCEP, and 1% DMF in the presence of 50 μM Thioflavin T (Sigma Aldrich, Israel) in a black 96-well plate at 37° C. with continuous shaking (set to fast) using a SpectraMax Paradigm (Molecular Devices) ELISA reader. The fluorescence (Exc. 440 nm; Em. 485 nm) was measured at 5 min intervals.
(§1) The effect of the binding of SOD1-derived peptides to misfolded SOD1 on kinetics of SOD1 aggregation was tested. The time course of SOD1^G93A aggregation was followed by monitoring the fluorescence of a thioflavin T (ThT) probe.

Assay [2] addresses T1, SOD1^G93A. Description: TEM analysis of SOD1^G93A aggregate morphology. It counts as biochemical. As to conditions: for morphology of SOD1^G93A aggregates by TEM versus SOD1^G93A alone: co-incubation with peptide, end of aggregation assay (FIG. 4B); for morphology of SOD1^G93A aggregates by TEM: 64 h at 37° C. Here is the method: Samples for TEM imaging were prepared as follows: at the end of the aggregation assay, 2.5 μl samples (diluted 5-fold) were deposited on a carbon-coated copper 300 mesh. After 1 min, the excess liquid was carefully blotted by a filter paper. Followed 1 min drying at the ambient temperature, 5 μl of 2% uranyl acetate was added. After 1 min, the excess of the salt solution was carefully removed with a filter paper. The imaging was performed using a Tecnai G2 12 BioTWIN (FEI) transmission electron microscope with an acceleration voltage of 120 kV. Depending on the aggregate size, different magnifications were used. The visible features were sensitive to the electron beam exposure, indicating their organic origin.
as §1

Assay [3] addresses T1, SOD1^G93A. Kind of assay: Peptide binding to fluorescently labeled SOD1^G93A by microscale thermophoresis (MST). The conditions noted are these: SOD1^G93A 300 nM, 1.5 h at r.t., peptide 0-100 μM. The text has this:
(§2) Peptides were synthesized by GL Biochem Ltd. (Shanghai, China). Peptide identity and purity (>90%) was confirmed by MS and HPLC analyses. For microscale thermophoresis (MST) analysis, the proteins (SOD1^WT and SOD1^G93A) were labeled with BLUE fluorescent dye NT-495-NHS (lysine chemistry) using a Monolith NT protein labeling kit Blue-NETS (Nano Temper Technologies, Munchen, Germany) at a protein (monomer):dye ratio of 1:3 as recommended by the manufacturer.
(§3) The assessment of peptide binding to the proteins was carried out using Monolith NT.115 (NanoTemper Technologies, Munchen, Germany). […] The binding data were analyzed by a non-linear regression using a logistic (three parameter) function implemented in Prism6 (GraphPad) program.
(§4) The binding of synthetic peptides to fluorescently labeled SOD1^WT or SOD1^G93A was assessed using a microscale thermophoresis technique (MST). Two overlapping peptides, designated SE-11 (SEQ ID NO: 6) (SOD1 aa. 90-109, […]) and SE-12 (SEQ ID NO: 7) (SOD1 aa. 106-125, […]), inflicted a specific, dose-dependent increase in the fluorescence of the target proteins (FIGS. 3A-D).
(In MST a laser heats a spot of the sample, and binding alters the fluorescence response.)

Assay [4] addresses T2, SOD1^WT (Homo sapiens, UniProt P00441).
T2 construct: 6His (N); made in house; host or cells: E. coli BL21
Kind of assay: Peptide binding to fluorescently labeled SOD1^WT by microscale thermophoresis (MST). The conditions noted are these: SOD1^WT 200 nM, 1.5 h at r.t., peptide 0-100 μM.
Source text: as §2, §3, §4

Assay [5] addresses T2, SOD1^WT. Description: Immunoprecipitation (B8H10 mAb) analysis of SOD1^WT misfolding. As to conditions: peptide 600 μM, 4 or 37° C.; effect more prominent at 4° C. The format is biochemical. Here is the method:
Purified recombinant SOD1^G93A or SOD1^WT proteins […] were incubated for 4 h in 50 mM Tris-HCl buffer, pH 7.4, 150 mM NaCl, 1 mM EDTA, in the presence or absence of peptide SE-12 (SEQ ID NO: 7) (600 μM) at 4 or 37° C. After incubation, 10 μg of SOD1 proteins were transferred into immunoprecipitation (IP) buffer (50 mM Tris-HCl, pH 7.4, 150 mM NaCl, 1 mM EDTA, and 0.5% Nonidet P-40 plus protease inhibitors) and incubated at 4° C. overnight with B8H10 monoclonal antibody (MediMabs) crosslinked to protein G beads (Dynabeads, Invitogen) using dimethyl pimelimidate (Pierce) according to the manufacturer's instructions. The beads were magnetically isolated and washed three times with IP buffer. Samples were eluted by boiling in 2× sample buffer. Both bound and unbound IP fractions were then separated by SDS-PAGE, transferred to a nitrocellulose membrane and probed with goat anti-SOD1 antibody (C-17; Santa Cruz Biotechnology).
To test the function of the exposed ^106LSGDHC^111 epitope on misfolding of other SOD1 molecules, the effect of the SE-12 (SEQ ID NO: 7) peptide on SOD1 misfolding was tested using immunoprecipitation with a mAb (B8H10) that specifically recognizes misfolded SOD1. […] The effect of the peptide was more prominent at 4° C., when the intrinsic rate of SOD1^WT misfolding is low, than at 37° C. […]

[6] abbreviates: 1:12 SOD1^G93A:peptide molar ratio.

T1 sequence (P00441 2-154 G94A): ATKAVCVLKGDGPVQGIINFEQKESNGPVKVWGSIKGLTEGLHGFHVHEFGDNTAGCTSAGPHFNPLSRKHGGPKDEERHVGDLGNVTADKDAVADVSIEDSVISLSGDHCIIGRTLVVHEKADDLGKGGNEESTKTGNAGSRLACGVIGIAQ
T2 sequence (P00441 whole entry): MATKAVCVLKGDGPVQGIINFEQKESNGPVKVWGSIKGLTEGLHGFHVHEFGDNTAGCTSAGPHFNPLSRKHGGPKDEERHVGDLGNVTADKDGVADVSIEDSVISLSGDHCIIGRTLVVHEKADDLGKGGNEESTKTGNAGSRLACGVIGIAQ

As to “DKDGVADVSIEDSV (listed as Homo sapiens) [SE-20, SOD1-derived peptide]”, the “ThT response / amyloid-like aggregation of SOD1^G93A on co-incubation with peptide” value (“ThT response / amyloid-like aggregation” for short) in assay [1] (37° C., continuous shaking) is reported as “formation of amyloid-like (ThT-responsive) aggregates”. Moreover, the “morphology of SOD1^G93A aggregates by TEM versus SOD1^G93A alone” value (from here on “morphology … by TEM versus SOD1^G93A alone”) in assay [2] was “morphology was different”.

Turning to “DKDGVADVSIEDSVISLSGD (listed as Homo sapiens) [SE-11, 20-mer peptide, SOD1 aa; 90-109]”, the “ThT response of SOD1^G93A” value in assay [1] (low peptide:SOD1 molar ratios, 37° C., continuous shaking) is “inhibited the ThT response of SOD1^G93A”; in assay [1] (peptide:SOD1 molar ratios higher than 3, compared to SOD1^G93A alone), “significantly enhanced ThT response”. In addition, in assay [3], the “change in fluorescence of labeled SOD1^G93A (peptide binding)” value is on record as “effect was obtained”. Also, the figures for the “morphology of SOD1^G93A aggregates by TEM” value in assay [2] (setting [6]) and in assay [2] (low peptide:SOD1 molar ratio (1:0.2 SOD1^G93A:peptide)) were “large spherulites (0.5-1.0 μm diameter)” and “suppressed the formation of characteristic fibril-like aggregates”, respectively. For the same sequence, the “change in fluorescence of labeled SOD1^WT (peptide binding)” value in assay [4] was “only with SOD1^G93A”.

Consider “EDSVISLSGDHCIIGRT (listed as Homo sapiens) [SE-21, SOD1-derived peptide]”, for which the “ThT response / amyloid-like aggregation” value in assay [1] (37° C., continuous shaking) was “did not prevent aggregation”. In assay [2], the “morphology … by TEM versus SOD1^G93A alone” value is listed as “different morphology (size)”.

Take “IIGRTLVVHEKADD (listed as Homo sapiens) [SE-19, SOD1-derived peptide]”: the “ThT response / amyloid-like aggregation” value in assay [1] (37° C., continuous shaking) is “formation of amyloid-like (ThT-responsive) aggregates”. Besides, the “morphology … by TEM versus SOD1^G93A alone” value in assay [2] was “morphology was different”.

With “LSGDHCIIGRTLVVHEKADD (listed as Homo sapiens) [SE-12, 20-mer peptide, SOD1 aa; 106-125]”, the “amount of misfolded SOD1^WT immunoprecipitated by B8H10” value in assay [5] is “significantly increased the amount of accumulated misfolded species”. In assay [1] (37° C., continuous shaking), the “ThT response / amyloid-like aggregation” value is “inhibited the SOD1^G93A-triggered ThT response and fibril formation in a dose-dependent manner”. Also, in assay [3], the “change in fluorescence of labeled SOD1^G93A (peptide binding)” value is on record as “increase in fluorescence was observed”. Also, the “morphology of SOD1^G93A aggregates by TEM” value in assay [2] (setting [6]) is reported as “amorphous aggregates were detected by TEM”. Moreover, the “change in fluorescence of labeled SOD1^WT (peptide binding)” value in assay [4] was “increase in fluorescence was observed”.
